# Results published in the supplement of paper PMC12764529.
# ± gives the half width of the 95% confidence interval.
# Legend:
# [1] = folding stability dG unfold from trypsin proteolysis; higher = more stable
# How it was run: (§1)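 Unfolding free energy was derived, per protease or combined, by relating Bayesian-fitted K50 values from sequencing counts to a sequence-predicted unfolded-state K50 and a shared folded-state K50. The underlying digests exposed cysteine-free mini-proteins under 80 residues, in a PA-tagged cDNA display construct, to trypsin and chymotrypsin at 11 threefold-diluted concentrations and to a no-protease condition. A filter kept only designs with AlphaFold2 dimer inter-PAE above 15.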
# [2] = folding stability dG unfold from chymotrypsin proteolysis; higher = more stable
# How it was run: as §1
# [3] = folding stability dG unfold (combined trypsin and chymotrypsin); higher = more stable
# How it was run: as §1
Sequence,folding stability dG unfold [1],folding stability dG unfold [2],folding stability dG unfold [3]
MNIKVTSVLPDGTVVVTAEAPLPDGSSIRVTAARRGKDSYVLVTVNVYPTKVVADIKEVAPVSPGSPEEGGS [r1_53_TrMRF],2.21 ± 0.085 kcal/mol,3.3 ± 0.12 kcal/mol,2.88 ± 0.12 kcal/mol
SAGMETVKIKVRVKVTVRERLPDGTVKTREFELTLEIEVEVEPGQTAEELAKKLAEEFNIEEVEIEKVPSAG [r5_994_TrROS_Hall],2.57 ± 0.19 kcal/mol,3.83 ± 0.58 kcal/mol,3.29 ± 0.38 kcal/mol
MPARVEARRIPDEPRLEVVVDFPGYRVVVRVDEGGRVEVEVVWEENVGPEERAAAEEAAEAFAREVAEALGS [r1_468_TrMRF],0.401 ± 0.19 kcal/mol,1.05 ± 0.039 kcal/mol,0.839 ± 0.099 kcal/mol
SAGGSAGGSDRYLAVVFVRRADDPTPEVRTFTGIRTLADVERAVADALPADVAEVRIVVFPVRSAGGSAGGS [r20_29_TrMRF],1.59 ± 0.055 kcal/mol,1.82 ± 0.12 kcal/mol,1.67 ± 0.12 kcal/mol
SAGGSAGGMTFTIPPGKPVTIRVYNRNGELIEEVTVTGAGARIHVSEIPGTGELKITRIDEIPPSAGGSAGG [r6_523_TrMRF],2.33 ± 0.049 kcal/mol,2.91 ± 0.071 kcal/mol,2.72 ± 0.087 kcal/mol
SAGGSLSEIIEKAKELAKKKYPNKGVTVPVEIKYKDPVKKKWIKVKIEITFDKNGNIIKITIKEIKLESAGG [r13_770_JUSTAS],3.48 ± 0.27 kcal/mol,4.04 ± 0.12 kcal/mol,3.91 ± 0.41 kcal/mol
MYTIEVEVSTEPNPNTTTVTVRITSDDGTPVPEEVVKEAAEKIKKSGYPIDELEVKPLPDGSVEVTLKYSSS [r1_408_JUSTAS],3.31 ± 0.17 kcal/mol,4.05 ± 0.13 kcal/mol,3.76 ± 0.11 kcal/mol
SAGGMISKKLNPPSKEEAEKIAEEIKKKNPNYKVTMTYDPKTGTYTITITPLPKPPPDPKNFKEIIKSAGGS [r16_674_JUSTAS],1.23 ± 0.12 kcal/mol,1.74 ± 0.15 kcal/mol,1.48 ± 0.21 kcal/mol
SAGGSAKTISIIIPFKGLTPEQAIEIAKELEKLLGTKAKIESIPGKGYILVTLELPNKTSYIIIPGSAGGSA [r15_168_TrMRF],1.81 ± 0.041 kcal/mol,2.08 ± 0.039 kcal/mol,2 ± 0.053 kcal/mol
SAGKKKKIKKIEIEIEKNKDGKEIKVKVKVDGKEYEFTFPKNMSLEELLKKLKEELEKEGLKIEEVEIKSAG [r5_305_TrROS_Hall],2.5 ± 0.13 kcal/mol,2.8 ± 0.13 kcal/mol,2.73 ± 0.18 kcal/mol
SAGGSAGGLEIAKELGFEKIEIEEVKENRVVLKLKDKNGKEYKIEFEFDPETGEIKILKIEPLPSAGGSAGG [r6_526_TrMRF],3.1 ± 0.21 kcal/mol,4.19 ± 0.1 kcal/mol,4.12 ± 0.13 kcal/mol
SEAEEAARKLAEELGLEVEVVEVDEETGTVTVRVRFEDEPTVTITITFDEETGELTVTIEVRPPPPPPPESA [r9_1119_TrROS_Hall],3.49 ± 0.23 kcal/mol,3.51 ± 0.54 kcal/mol,3.72 ± 0.43 kcal/mol
SAGGSAGGGGMMKTITIPLEELKAKLAKETGKPLTIEEIKEALKKEGIKLLSVDKEKGTITISESAGGSAGG [r6_767_JUSTAS],2.4 ± 0.1 kcal/mol,1.73 ± 0.09 kcal/mol,2.16 ± 0.13 kcal/mol
SAGGSMVIEAEIEFPDMTPEEVEERAEEIAEAAAEFARKKGFPIKKVEADVEVFPGEGVVKVTVTLEGSAGG [r13_212_TrMRF],0.612 ± 0.043 kcal/mol,0.204 ± 0.2 kcal/mol,0.611 ± 0.11 kcal/mol
SAGGDSISDIESVNIYSFNIPSNPYPYIIAELTIPDGRKIIAIYDPSTNTVTIIIEDDGKPRIITLPASAGG [r13_960_TrMRF],2.49 ± 0.1 kcal/mol,2.9 ± 0.12 kcal/mol,2.7 ± 0.11 kcal/mol
SAGGGSMAASSVTSEEKPLPDGSSLSIPEITRPDNVATLTVEYYDPKTGTKYTFTLTIPISPDDTVTLSAGG [r13_190_JUSTAS],1.79 ± 0.086 kcal/mol,1.97 ± 0.06 kcal/mol,1.99 ± 0.15 kcal/mol
MKKKVTISIKRKSEVKYTKFPNGEVVPVEDLGGLTVTIEVPESELEELLKKLDIPEDEIEEITVTITPEASS [r1_351_JUSTAS],1.08 ± 0.18 kcal/mol,-0.175 ± 0.8 kcal/mol,0.648 ± 0.42 kcal/mol
SAGGSAGGSASAEEIAAKIEALFPVKVTVVREEPTPLGRPEVVIEVDAVGVPEELLEEVLKSAGGSAGGSAG [r3_40_JUSTAS],0.68 ± 0.04 kcal/mol,0.446 ± 0.033 kcal/mol,0.559 ± 0.064 kcal/mol
SAGGSAGGSAVVALTPDGALAVWFPEKGVVVVYNPATGTYTVLTVDADNTVTLEDVPPNTDVFSAGGSAGGS [r12_997_TrMRF],1.46 ± 0.032 kcal/mol,1.13 ± 0.07 kcal/mol,1.34 ± 0.057 kcal/mol
MRIEIRVEKVEDGFYKVTIRLEETGETLELVVPKSLEEAKAAAEELLRELFPDVKVTEIRVERVPLPEEDLS [r1_80_TrROS_Hall],3.03 ± 0.077 kcal/mol,2.77 ± 0.063 kcal/mol,2.9 ± 0.07 kcal/mol
SKKKKKKKKKKVIIKIKKDGKEIYIEMTVEEIKELLKKGVKKIEIYSPSEEEKEKIKKLLEEEGVEVEEVSA [r9_810_TrROS_Hall],2 ± 0.1 kcal/mol,1.71 ± 0.07 kcal/mol,1.78 ± 0.18 kcal/mol
